Our source for the Kd values is publication PMC8809517, “Cofactor-independent RNA editing by a synthetic S-type PPR protein”.

Common to all, as to test: high-throughput RNA pulldown from lysate on Ni-NTA beads; HRP: 50 mM Tris pH 8, 150 mM NaCl, 1 mM beta-mercaptoethanol, 50 ug/ml BSA, 3 ug/ml yeast RNA, 0.5% heparin; ITC and FP: Tris pH 8, 200 mM KCl, 5% glycerol; MST: 50 mM Tris pH 8, 200 mM NaCl, 1 mM DTT, BSA, heparin, 0.05% Tween 20
Common to all, as to conditions: tags: N-terminal His-eGFP

Data set [1] addresses T1, GFP-9S library array, motif 4 ND N98P;D124F (synthetic construct, N98P;D124F).
T1 chain: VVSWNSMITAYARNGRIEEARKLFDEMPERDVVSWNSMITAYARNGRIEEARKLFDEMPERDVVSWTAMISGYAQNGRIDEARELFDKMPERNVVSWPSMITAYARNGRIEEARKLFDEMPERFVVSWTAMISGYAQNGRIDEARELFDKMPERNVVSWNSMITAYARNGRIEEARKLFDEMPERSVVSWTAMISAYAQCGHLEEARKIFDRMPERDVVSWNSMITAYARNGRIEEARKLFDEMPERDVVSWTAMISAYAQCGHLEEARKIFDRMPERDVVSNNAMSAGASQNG

In data set [2] the target is T2, GFP-9S library array, motif 4 ND N98I (synthetic construct, N98I).
T2 chain: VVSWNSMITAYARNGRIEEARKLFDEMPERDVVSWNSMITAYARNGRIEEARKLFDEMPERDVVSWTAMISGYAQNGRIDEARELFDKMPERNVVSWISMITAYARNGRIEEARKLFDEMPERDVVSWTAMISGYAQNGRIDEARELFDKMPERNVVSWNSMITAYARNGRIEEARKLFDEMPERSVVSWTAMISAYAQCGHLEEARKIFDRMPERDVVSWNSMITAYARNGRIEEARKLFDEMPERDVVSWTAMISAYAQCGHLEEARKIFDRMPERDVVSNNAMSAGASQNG

Data set [3] deals with T3, GFP-9S library array, motif 4 ND N98E;D124S (synthetic construct, N98E;D124S).
T3 chain: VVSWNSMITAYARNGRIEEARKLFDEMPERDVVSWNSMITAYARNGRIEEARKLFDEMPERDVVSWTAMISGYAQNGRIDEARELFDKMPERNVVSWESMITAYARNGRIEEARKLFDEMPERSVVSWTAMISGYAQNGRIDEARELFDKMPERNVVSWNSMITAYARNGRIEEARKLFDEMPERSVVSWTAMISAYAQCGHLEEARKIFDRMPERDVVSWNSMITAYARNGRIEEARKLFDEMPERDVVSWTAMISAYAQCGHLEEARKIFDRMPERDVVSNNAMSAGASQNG

Data set [4] concerns the target T4, GFP-9S library array, motif 4 ND N98K (synthetic construct, N98K).
T4 chain: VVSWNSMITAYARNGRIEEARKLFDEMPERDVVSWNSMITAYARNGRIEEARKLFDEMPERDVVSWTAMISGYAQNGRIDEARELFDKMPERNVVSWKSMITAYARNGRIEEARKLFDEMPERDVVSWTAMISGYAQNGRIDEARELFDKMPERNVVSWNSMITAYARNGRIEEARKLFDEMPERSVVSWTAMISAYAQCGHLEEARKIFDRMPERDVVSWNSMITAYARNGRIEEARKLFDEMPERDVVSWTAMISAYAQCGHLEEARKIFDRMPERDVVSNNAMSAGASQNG

The target in data set [5] is T5, GFP-9S library array, motif 4 ND N98R;D124R (synthetic construct, N98R;D124R).
T5 chain: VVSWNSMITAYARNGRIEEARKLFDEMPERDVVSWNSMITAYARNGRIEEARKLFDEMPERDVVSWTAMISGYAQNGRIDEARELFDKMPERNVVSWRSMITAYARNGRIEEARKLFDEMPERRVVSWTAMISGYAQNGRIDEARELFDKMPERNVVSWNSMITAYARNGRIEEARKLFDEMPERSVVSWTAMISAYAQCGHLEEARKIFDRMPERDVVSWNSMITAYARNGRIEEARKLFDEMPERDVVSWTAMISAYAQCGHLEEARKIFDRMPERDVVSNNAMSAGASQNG

One may read the Kd as the concentration at which binding is half-saturated. Low values mean tighter binding, high ones weaker binding. With AUUAAACGUGA (ssRNA) [IR-rpoA-A], the Kd in data set [1] (label: 5' IRDye 800CW) was found to be 245 nM; in data set [2] (label: 5' IRDye 800CW), 175 nM; in data set [3] (label: 5' IRDye 800CW), 938 nM; in data set [4] (label: 5' IRDye 800CW), 409 nM; in data set [5] (label: 5' IRDye 800CW) it was 82 nM.
AUUACACGUGA (ssRNA) [Cy5-rpoA]: the Kd in data set [1] (label: 5' Cy5) stood at 134 nM; in data set [2] (label: 5' Cy5) it was 153 nM; in data set [3] (label: 5' Cy5), 422 nM; in data set [4] (label: 5' Cy5), 189 nM; in data set [5] (label: 5' Cy5) it was 97.6 nM.
With AUUAUACGUGA (ssRNA) [IR-rpoA-U], the Kd in data set [1] (label: 5' IRDye 800CW) was determined as 290 nM; in data set [2] (label: 5' IRDye 800CW), 53.5 nM; in data set [3] (label: 5' IRDye 800CW) it was 512 nM; in data set [4] (label: 5' IRDye 800CW) it was 279 nM; in data set [5] (label: 5' IRDye 800CW) it was 97.9 nM.
AUUAGACGUGA (ssRNA) [Cy5-rpoA-G]: the Kd is 125 nM in data set [1] (label: 5' Cy5); 127 nM in data set [2] (label: 5' Cy5); 630 nM in data set [3] (label: 5' Cy5); 315 nM in data set [4] (label: 5' Cy5); 53.3 nM in data set [5] (label: 5' Cy5).
